Data as given in a protein production outcome set (Wang et al. 2014).

Assay: label from the status in PepcDB records

MRMQQDVQDVKLIAVLNLLNQLSNKNSLEEYLNGVIDFLSGWTGCENIGIRVLREAGLAPYVVHRGFDKDFIASESCISVEGDECVCLRVLKQQFKSEDQDHISAAGTYYAPNFYRYVEELREDQLLNFRGLCAHKQFKSLAVIPLLHQGKVVGAIHIADIKDGVFSEEDIHFIETIRPLVAEAIYRHNLEKALESTVLRYEAEEMVIRKLKFEERLASISARFNQQEDFKAAAEESLKDILKLFKAEEVCLYLGGNLKEYVSVREHGQQACGCVIPSDTFAELRGRWKQGEILCQKPALQDEFKEIEYFAQEVFSKDSILTIPLNFKGSLLGVLIIVNISSGGLPFKEILNPLKLVTETFANAVEQGRIQYQLMWSENRYRTIFNHSGSAFLIVDENLKILLSNPQAERLLDLPSAKIDNIAYLTDFLPDTEVGRLKEYNRRRLQRDPQIPRQYEMKYKDSRGNLKDVIVSAEVIPQTTQTVLSIIDITEWKKTEAELQFLNLHDRLTGLYNRVYFEQELRRYETDPGQEVGLIMADVNGLKLINTTFGSEAGDQVLVTTARLLNECFEEHLVARIGGDEFAVLIEKDKNVDLEQACQLFRRNVEKYNKDHDGYPLDISLGYACSGAGGVNMSELLRKADDAMGREKLHSNNSTRNSQVQILSKALECRDFITEGHAERVQNLIISTGQLAGLSEQRLSDLKLFAQFHDIGKVGIPDQILFKKGRLTADEWEIMKQHCEIGYRIAQSTPDIYPIADWILKHHENWDGSGYPLGIAGEEIPIECRILAVADTFDAMTNDRPYRKAQSTQAAIEEILRCAGTQFDPHIVELFVKTV
protein production: failed

QMNTVFIKNEGVTEGEIATIGEHTAEISGVSTGTDWTRDYSQSGALRSLLGTVSTEKQGLPAEEVDEYLKKGYARNDRVGTSYLEKQYEDVLQGKKAKSEVVLDNNGKIVSQTPISKGEKGSNLKLTID
protein production: failed

MKKTKVHLISGFLGTGKTTALKSLMAQKDPNEKWVIIVNEFGEIGIDGAVLSDNGIPVAEIAGGCLCCTAGPQMGVTVQKMLRDAKPDRLMIEASGLAHAASVIDELKTKPLDSLLEIGAVFTVVDPRQFINPDYAQQALYKDQIGICDVLVASKTDLCTPEQLAEFHDKAAKLFPPKAKVVEVQNAQLDIQWLDIPVIEKSRYRLKALPDNTMGFQSQGFTFPAGRDFDGEKLTNFFNDLPNMTEGLVRAKGVFQVLGTWVWLNWVDGQWGANQVSWRRDSRFELIAKSFDADLIEQKLKDALELEHHHHHH
protein production: failed

MSLTNHHPSSTGPQHPYRAGWIHFTNVAPILDSLELPPGVTAITGVPTQMNAALLSGEVDIANVSAVEFIRHADTLAALPDFSVAVLGPVYSVNLFHTCPLPELRRVALTSQSAMSVALLEVLLRQKGLSPVLERAEGTAESLLAAGYDGVLRIGDDALREWYGVVGPLTPERTMTSLPHTGRGITVTDLAQEWFDLTGHPFTFAVWAYRKDNPPPAALLQAMREARRRGIGHLAEVSQRHAEKLGLPERVVQHYLWNFRYHLEAPDRLGLREFADLAVPGHAELTFGAREEAEGHHHHHH
protein production: not failed

MNLGQWIGLIALILSLYILWQIKEVLLLMFAAVVLATTLNRLAKRFQRSGMKRGWAVMLAVAIFFAVVVGFFWLIVPPFAEQFNELTYRVPQGFERFNAWINELRTRIPAQLVPYIPDLNSLIQQAQPFINRVLGSSFAIVSGSLEVVLKVLLVLVLTGMLLADPIAYRKVFVRLFPSFYRRRVDGILDQCEVSLEGWVTGAVIAMGVVGLMSVVGLSILGVKAALALGVLAGFLNLIPNLGPTLSVVPAMAIALLDSPWKVVAVLILYFIIQQAESNFITPIVMAQQVSLLPAVTLISQLFFVTFFGFLGLFLALPLTVVAKIWVQEVLIKDVLDEWGHDHSQESELVMVSHYSEGDDHWSDDKQANKPTDDTVSQED
protein production: failed

SAAVGAEARGAWCVPCLVSLDTLQELCRKEKLTCKSIGITKRNLNNYEVEYLCDYKVVKDMEYYLVKWKGWPDSTNTWEPLQNLKCPLLLQQFSNDKHNYLSQVITSEEAERRGQFYDNKGITYLFDLDYESDEFTVDAARYGNVSHFVNHSCDPNLQVFNVFIDNLDTRLPRIALFSTRTINAGEELTFDYQMKGSGDISSDSIDHSPAKKRVRTVCKCGAVTCRGYLN
protein production: failed

MKKIISLALALALSASAAELKMATTTSTDNTGLLDALKPLYEKESGNTLKWVAVGTGAALKMGEDCNADVLFVHSPKAEKEFMKKGFGVDRTPVMYNDFIIIADKSLASKFKGKNLKESLELIKNEKLTFISRGDKSGTDNKEKSLWKNLGGVPEKQSWYQQSGQGMLASIKIAEEKKGVILTDRGTYIKYEANEKGKPNLVIVNEGDDSLKNFYSVIATNPKHCKNVNYTEASKFIKWVTSDKTLNFIADFKLLNKPLFVIDAKTRKD
protein production: failed

MEALVVVHKVASEGGRRPKTTVSDESGSHSREKGKSFQVKDSPENNYATGKVDSLERSHFSSSYNQERRQSEEQRR
protein production: failed

MKGGLYMKLTKKQLKEYIEDYKKSDDILINLYIETYEFYCRLRDELKNSDLMIEHTNKAGASNIVKNPLSIELTKTVQTLNNLLKSMGLTAAQRKKIVQEEGGFGDY
protein production: failed

MKTITQELKQYMTHLFQLSNNEAWECEALEEAAENILPERFINDSPLVQLTLETYTYYNDELHELSIYPFLMYANNQLISIGYLDHFDMDFLYLTDTQNIIIDERHLLKQGGQDHELEHHHHHH
protein production: not failed

MFTNSGVFIMYKILEKKEIAMRNTWYKIYAPHVAKKVQPGQFVIVRAFPNGERIPLTPIMWDREEGWIVLVAFTKGKTTMKMAMELKEGDEILNVAGPLGNPAPMEKFGKILAIGAYVGIAEVYPIAKAWQEIGNDVTTLHVTFEPMVILKDYFEKAVSRHIVEPVKIDQEKSFQENTKNVTKALTAKVKELLDNENWDLVFMVGPPGDQKAVFEVVKKYGIPMKVDLHPIMVDGTGMCGACRVTVGGEVKFACVDGPEFDAYLVDWDELIHRVGFYSKLEKLALEKYMEELKAKGVI
protein production: failed

MKKKSFSIVIAGGGSTFTPGIVLMLLDHLEEFPIRKLKLYDNDKERQDRIAGACDVFIREKAPDIEFAATTDPEEAFTDVDFVMAHIRVGKYAMRALDEQIPLKYGVVGQETCGPGGIAYGMRSIGGVLEILDYMEKYSPDAWMLNYSNPAAIVAEATRRLRPNSKILNICDMPVGIEDRMAQILGLSSRKEMKVRYYGLNHFGWWTSIQDQEGNDLMPKLKEHVSQYGYIPKTEAEAVEASWNDTFAKARDVQAADPDTLPNTYLQYYLFPDDMVKKSNPNHTRANEVMEGREAFIFSQCDMITREQSSENSEIKIDDHASYIVDLARAIAYNTGERMLLIVENNGAIANFDPTAMVEVPCIVGSNGPEPITVGTIPQFQKGLMEQQVSVEKLTVEAWAEKSFQKLWQALILSKTVPNARVARLILEDLVEANKDFWPELDQSPTRIS
protein production: not failed

MDNFVVTFARGFGTGGKAIASQLAKELGIHCYENRILTLASQLSGLDENVFQEVNEKLREEGGFTSFLRGLPRAKGYISRNEKFKSDDRLFEYQSQIINELADKESCVIVGKCADYVLKNRPNVVSIYIEAPRAFCVERTITNMGVTPEVANATIERTDKFRADYYKYYTHGNYWTNPVNYDLTLNSERVGVENCVKTIEQYLIIKGFIKADMIKPAGELI
protein production: failed

MEAVVLPWQIFGVRELPVERGVTMKGPRLFRAPGHVPTGLKCHPDQEHMIYPLGCTVLIQAINTKEQNFLQGHGNNVSCLAISRSGEYIASGQVTFMGFKADIILWDYKNRELLARLSLHKGKIEALAFSPNDLYLVSLGGPDDGSVVVWSIAKRDAICGSPAAGLNVGNATNVIFSRCRDEMFMTAGNGTIRVWELDLPNRKIWPTECQTGQLKRIVMSIGVDDDDSFFYLGTTTGDILKMNPRTKLLTDVGPAKDKFSLGVSAIRCLKMGGLLVGSGAGLLVFCKSPGYKPIKKIQLQGGITSITLRGEGHQFLVGTEESHIYRVSFTDFKETLIATCHFDAVKDIVFPFGTAELFATCAKKDIRVWHTSSNRELLRITVPNMTCHGIDFMRDGKSIISAWNDGKIRAFAPETGRLMYVINNAHRIGVTAIATTSDCKRVISGGGEGEVRVWQIGCQTQKLEEALKEHKSSVSCIRVKRNNEECVTASTDGTCIIWDLVRLRRNQMILANTLFQCVCYHPEEFQIITSGTDRKIAYWEVFDGTVIRELEGSLSGSINGMDITQEGVHFVTGGNDHLVKVWDYNEGEVTHVGVGHSGNITRIRISPGNQYIVSVSADGAILRWKYPYTS
protein production: failed

MEKISDLIECIAYEKNLPKEMISKVIQGCLLKMAQNELDPLARYLVVEENKQLQLIQLVEVLEDGDERLVNDPSKYISLSKAKEMDPSVKIKDELSYSLSLESMKQGAINRLFKDLQYQLEKALEDSHFEAFQKRLNSVLMGQVILVDHNQNTFIEIEQQFQGVLSMRHRIKGESFKVGDSIKAVLTQVKRTKKGLLLELSRTTPKMLEALLELEVPEIKDKEIEIIHCARIPGNRAKVSFFSHNARIDPIGAAVGVKGVRINAISNELNKENIDCIEYSNVPEIYITLALAPAKILSVEIKKIPIEELNAEEKESIQERFIVNNHLQKAKVRLLDIEKSKAIGKGGVNVCLASMLTGYHIEFETIPSVKENAENESEKETPKVGVEALESLFKNLEHHHHHH
protein production: not failed

MQFLNQSLGFFNKGCFEPIDRNFITESYQALKPIEEIQNKYNKHDNDSFLNELRDSMVALYLDYELINIQKHGLDAKRSSSDEFLEIKQVSFQSQLIKEFEFKMKPIDSKEQELINLFNLKFGHFSWENYLA
protein production: failed

MEGWDPNTKSTLTRIPLLTTKAGPRDGAAWTQRLKEEYKSLIAYTQMNKSNDNDWFRISASNPEGTRWTGKCWYVHNLLKYEFDLQFDIPITYPATAPELELPEIDGKTQKMYRGGKICLTVHFKPLWAKNCPRFGIAHALCLGLAPWLAAEIPILVDSGAIKHKDDAATSAES
protein production: failed

MSTQFKLPLASPLTHGREDFAVSPSNGEAVARLDAWPDWAEGRLVLVGPAGCGKSHLARAWAAAAGAVVVEAANPDAASVDLSALRGRAVLVEDADRRAQGAAVSDEALFHILNMAGVDGGTVLLTGRTAPLTWSAEVADLRSRLNALSVAEIAEPDDAVLEAVLRRAFAAAWWKPEPDLYPYLLARLPRSAAEAQAAAALLAEAAADGRRELTKALAREVLEGFEGDEGLEHHHHHH
protein production: failed

MTSFVGTRGRGNCGTAPGRSPSLQAHGKMGRRREPGVPEESCCSHDACCEKAAKPRVEEVATSGCADCCSAGVPVFDGLDPRYKRILWTVIAINAAMFVSEMVAGHLAGSQALKADALDFLADTVTYGLSLSVIGASLKTRATAALFKGVSLSAMAAWVFGSTVYQTLILGLPRAELMGAMSLAALAANLTSVLLLARYKDGDANVRSVWLCSRNDAVGNVIVMIAAVGVFGTGTAWPDLAVAAVMAGIFLTSSLQILRQAWAEYRGGQAAATA
protein production: failed

RDTSVVVEHTSANPTGPVHVGRARNPIIGDAVARVLDYAGYDVDRHYYVNDAGRQIAVFTWAYETFDEDDLPEPERESPEYEMVRYYRKGNTILEDGDPDEVEAAEAEVQSILQGLEDGDEETYERVAEVVDTVLGGMQNTLGRLPAEFDEFVKETKFMRNGDTDDLVDRLKGLDCAVYEEDAWQLDLPDFEKNLVFLRSDGTSLYTTRDLAHHEWKFDTYDRAVTVLGEDHKLQADQLAAALELLDNDTDQLRQVFYSWVNLPEGGMSTREGTGIDLDDLLDEAIDRAREEVESRLDDRTRGDLDEDDIDRIARQVGIGAVRYDIVSKQPTKGITFEWDRALDFEAQSAPYVQYV
protein production: failed

MSDLLFPIISMVLLVLAEAGVLQFTGRQKVDWLDVIFNINSGHMMLWLFRCLEVLCYGLVINHFSLGLFDNAPVILLWLFTILAWDFGFYWLHRWHHEMRPLWAVHVVHHQGEHYNLSLGVRNSWYSSLTSIPFFMLLAMLGVPLQIFLAVSIIHYSWQFFNHNALTPKLGWLEKVLITPSHHRVHHLNQKQYADTNYGGTFLLWDKLFGSYSAGPEYDVGYGVKNSRLSCNPMRESNLPFLRLMGFRSFGKAIEGRYQSSPWAVGAGVILLFMLVLGYIQQYGYGIEFITSEQAVLFVLLAAGSVALGGMSDGQHWGMILWCSVTLSLLYFIVYMCSWSTLLWKGLVGILLAHCLLFVIGVGRKSLRKQYEPV
protein production: failed
